Assay results from patent US20150344888A1 (published 2015).

T1: UCHL3 (UniProt P15374 1-230)
T1 chain: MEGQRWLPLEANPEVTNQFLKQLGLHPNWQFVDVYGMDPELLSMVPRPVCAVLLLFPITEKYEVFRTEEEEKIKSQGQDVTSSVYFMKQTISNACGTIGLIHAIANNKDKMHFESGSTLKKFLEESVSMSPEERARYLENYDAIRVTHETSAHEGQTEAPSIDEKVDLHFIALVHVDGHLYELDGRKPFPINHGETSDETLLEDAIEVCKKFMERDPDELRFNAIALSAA

T2: USP5 (UniProt P45974 1-858)
T2 chain: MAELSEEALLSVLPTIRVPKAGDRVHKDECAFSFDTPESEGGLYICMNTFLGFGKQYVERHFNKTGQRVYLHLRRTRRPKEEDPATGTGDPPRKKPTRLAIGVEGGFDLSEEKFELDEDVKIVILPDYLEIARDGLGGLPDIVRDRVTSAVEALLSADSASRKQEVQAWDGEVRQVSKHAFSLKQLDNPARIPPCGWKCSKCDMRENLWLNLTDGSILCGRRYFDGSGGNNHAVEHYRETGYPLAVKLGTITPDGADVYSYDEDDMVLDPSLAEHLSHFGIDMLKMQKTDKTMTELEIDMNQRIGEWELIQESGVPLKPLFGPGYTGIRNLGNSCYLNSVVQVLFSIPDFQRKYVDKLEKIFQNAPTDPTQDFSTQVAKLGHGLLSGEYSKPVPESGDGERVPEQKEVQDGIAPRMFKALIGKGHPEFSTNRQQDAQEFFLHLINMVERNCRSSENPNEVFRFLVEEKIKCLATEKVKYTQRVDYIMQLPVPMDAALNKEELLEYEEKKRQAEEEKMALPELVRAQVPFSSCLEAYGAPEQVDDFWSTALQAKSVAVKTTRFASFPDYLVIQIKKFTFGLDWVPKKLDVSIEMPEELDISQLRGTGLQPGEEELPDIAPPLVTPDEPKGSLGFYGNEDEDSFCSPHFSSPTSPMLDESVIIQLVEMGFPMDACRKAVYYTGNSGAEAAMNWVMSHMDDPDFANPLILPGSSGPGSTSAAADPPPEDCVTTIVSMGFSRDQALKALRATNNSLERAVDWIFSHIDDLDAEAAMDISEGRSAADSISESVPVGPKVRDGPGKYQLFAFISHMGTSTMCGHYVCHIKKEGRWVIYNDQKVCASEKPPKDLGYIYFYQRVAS

T3: USP2 (UniProt O75604 259-605)
T3 chain: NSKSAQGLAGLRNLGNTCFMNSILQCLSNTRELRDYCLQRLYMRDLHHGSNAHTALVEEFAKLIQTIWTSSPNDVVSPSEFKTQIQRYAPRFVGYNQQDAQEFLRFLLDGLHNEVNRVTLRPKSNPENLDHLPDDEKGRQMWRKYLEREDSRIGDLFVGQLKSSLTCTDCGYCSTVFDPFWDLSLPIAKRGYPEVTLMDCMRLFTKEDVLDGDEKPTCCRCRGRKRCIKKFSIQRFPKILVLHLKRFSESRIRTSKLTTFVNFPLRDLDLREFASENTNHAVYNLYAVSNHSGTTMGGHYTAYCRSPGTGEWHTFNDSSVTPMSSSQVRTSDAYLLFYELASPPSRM

T4: USP30 (active enzyme in the ubiquitin-AMC assay) (UniProt Q70CQ3 57-517)
T4 chain: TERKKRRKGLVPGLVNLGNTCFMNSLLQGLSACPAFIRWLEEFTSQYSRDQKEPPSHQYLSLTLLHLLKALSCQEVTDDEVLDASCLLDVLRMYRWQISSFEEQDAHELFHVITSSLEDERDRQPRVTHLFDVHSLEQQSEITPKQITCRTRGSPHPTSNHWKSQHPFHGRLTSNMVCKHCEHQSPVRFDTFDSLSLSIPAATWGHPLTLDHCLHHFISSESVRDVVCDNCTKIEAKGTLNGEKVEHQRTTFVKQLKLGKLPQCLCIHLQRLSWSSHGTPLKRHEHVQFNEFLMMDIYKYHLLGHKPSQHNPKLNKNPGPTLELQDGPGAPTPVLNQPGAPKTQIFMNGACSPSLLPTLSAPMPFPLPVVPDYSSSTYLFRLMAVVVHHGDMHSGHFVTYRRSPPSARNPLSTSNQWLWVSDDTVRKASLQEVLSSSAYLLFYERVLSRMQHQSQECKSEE


Assays:
Assay in all cases: ubiquitin-AMC enzyme inhibition
USP7 = target: USP7
UCHL3 = target: T1, UCHL3
USP5 = target: T2, USP5
USP2 = target: T3, USP2
[1] = target: T4, USP30 (active enzyme in the …)

IC50 (USP7) [µM] | IC50 (UCHL3) [µM] | IC50 (USP5) [µM] | IC50 (USP2) [µM] | IC50 [1] [µM] | Binder
31.7 |  |  |  |  | VSRCYIFWNEMFCDVE [pep8]
 | 194 | 42.9 | ~200 | 121 | VSRCYIFWNEMFCDVE [peptide USP30-8]
